From US20210255174

Columns and labels:
[1] = test system: Control peptide #113: [4-Mu]TRIDEANQRATK[DABCYL]-Hex
[2] = test system: Control peptide #112: [5-Fam]TRIDEANQRATK[DABCYL]-Hex

Substance: Trypsin
- KM [1]: 13.3 µM
- KM [2]: 3.75 µM
